Where “and” joins values, the source holds several entries; their conditions need not be identical. Equal entries are not always repeated. Ends that are not written are not given here.
Experiments:
[1] = Effect of DGC on hematology of mice; type: in vivo, C57BL/6J mice; conditions: for Mean hemoglobin content of red blood cells (MCH): in pg (unit assumed)
Source text: (§1) In order to clarify the NIR-II signal in AD brains when in vivo imaging is arisen from the DGC probe that bound to CTGF, we selected 3-month-old APP/PS1 mice representing early-stage AD and the age-matched WT mice as control to performed ex vivo multimodal analysis of the brain sections. […] To exclude the influence of vascular retention, we emptied the cerebral vessels by cardiac perfusion and performed ex vivo imaging of the brains. […] For brain sections made from AD mice after tail vein injection of DGC, the red fluorescence observation and LA-ICP-TOF-MS of DGC, as well as a POD-like catalysis test were performed. […] In Fig. 6c, the colocalization of DGC (red fluorescence) and CTGF (green fluorescence) on the ex vivo brain sections confirmed the specificity of DGC targeting CTGF in vivo. To further identify the cellular target of DGC in the brain of APP/PS1 mice, we carried out immunofluorescence staining on the ex vivo brain sections after tail vein injection of DGC where cell-specific fluorescent antibodies for microglia (Iba 1), neurons (NeuN), vascular endothelial cell (CD31) and reactive astrocytes (GFAP) were applied. In Fig. 6d, […] co-localizes with GFAP-positive active astrocytes and CD31-positive microvessels, but not with neurons or microglia. […] The biosafety of DGC in C57BL/6J mice under the NIR-II imaging condition was evaluated by blood tests (blood cells and biochemical analysis) and organ pathological analysis (H&E staining).

[2] = Effect of DGC on blood biochemistry of mice; type: in vivo, C57BL/6J mice; conditions: DGC group, mean of 3 mice
Source text: as §1

[3] = Pharmacokinetic study of DGC in C57BL/6J mice (serum Au by ICP-MS); type: in vivo; conditions: for AUC(0-t) (AUClast) / AUC(0-∞) (AUCINF_obs) / AµMC(0-t) (AUMClast) / AµMC(0-∞) (AUMCINF_obs) / Cmax / MRT(0-t) (MRTlast) / MRT(0-∞) (MRTINF_obs) / Vz/F (Vz_obs) / elimination half-life t1/2z (HL_Lambda_z) / CLz/F (Cl_obs) / Tmax: 20 mg/kg i.v. single dose, n=3; for AUC(0-t) (AUClast) / AUC(0-∞) (AUCINF_obs) / AµMC(0-t) (AUMClast) / AµMC(0-∞) (AUMCINF_obs) / Cmax / MRT(0-t) (MRTlast) / MRT(0-∞) (MRTINF_obs) / Vz/F (Vz_obs) / elimination half-life t1/2z (HL_Lambda_z) / CLz/F (Cl_obs) / Tmax / Clast / C0 / Cmax_D / Lambda_z: serum Au by ICP-MS; for AUC(0-t) (AUClast) / AUC(0-∞) (AUCINF_obs) / AµMC(0-t) (AUMClast) / AµMC(0-∞) (AUMCINF_obs) / Cmax / MRT(0-t) (MRTlast) / MRT(0-∞) (MRTINF_obs) / Vz/F (Vz_obs) / elimination half-life t1/2z (HL_Lambda_z) / CLz/F (Cl_obs) / Tmax / Clast_pred / AUCINF_D_obs / AUCINF_D_pred / AUCINF_pred / AUCall / AUClast_D / AUMCINF_pred / Cl_pred / MRTINF_pred / Vss_obs / Vss_pred / Vz_pred / C0 / Cmax_D / Lambda_z: WinNonlin; for CLz/F (Cl_obs) / Tmax: 20 mg/kg; for Clast_pred / Clast / AUCINF_D_obs / AUCINF_D_pred / AUCINF_pred / AUCall / AUClast_D / AUMCINF_pred / Cl_pred / MRTINF_pred / Vss_obs / Vss_pred / Vz_pred / C0 / Cmax_D / Lambda_z: 20 mg/kg i.v.; for Clast_pred / Clast: Tlast 48 h
Experimental: Male and female mice were given a single intravenous dose of 20 mg/ kg (n = 3). The blood of posterior orbital venous plexus was collected at continuous time points (0.083, 0.25, 0.5, 1, 2, 4, 8, 10, 12, 24, and 48 h) and the serum was rapid separation by centrifugation (1200×g at 4 °C, 10 min). Au content in the serum sample was detected by ICP-MS. The pharmacokinetic index was obtained by using winnonlin8.4 […] model.

[4] = DGC group, mean of 3 mice, in 10^9/L (unit assumed)
[5] = DGC group, mean of 3 mice, in % (unit assumed)
[6] = DGC group, mean of 3 mice, in fL (unit assumed)
[7] = DGC group, mice 1, in fL (unit assumed)
[8] = DGC group, mice 2, in fL (unit assumed)
[9] = DGC group, mice 3, in fL (unit assumed)

Substance: DGC: CTGF-targeting peptide-coated gold nanocluster: one Au26 gold nanocluster coated by eight DAG cyclic peptides, NIR-II and red fluorescence (CDAGRKQKC; also: cyclic peptide, ring not given here, eight peptides on one Au26 nanocluster via Cys Au-S bonds)
- Basophil granulocyte count (Bas#) ([1]; C57BL/6J mice, 20 mg/kg DGC, n = 3, normal range 0.00 - 0.12): 0.02 ± 0.01 109/L
- Eosinophil granulocyte count (Eos#) ([1]; C57BL/6J mice, 20 mg/kg DGC, n = 3, normal range 0.00 - 0.51): 0.04 ± 0.02 109/L
- Percentage of Basophil granulocyte (Bas%) ([1]; C57BL/6J mice, 20 mg/kg DGC, n = 3, normal range 0.0 - 1.5): 0.27 ± 0.06%
- Percentage of eosinophil granulocyte (Eos%) ([1]; C57BL/6J mice, 20 mg/kg DGC, n = 3, normal range 0.0 - 7.5): 0.47 ± 0.23%
- Monocytes count (Mon#) ([1]; C57BL/6J mice, 20 mg/kg DGC, n = 3, normal range 0.04 - 1.40): 0.25 ± 0.1 109/L
- Percentage of monocytes (Mon%) ([1]; C57BL/6J mice, 20 mg/kg DGC, n = 3, normal range 0.9 - 18.0): 3.07 ± 0.84%
- Percentage of neutrophil (Neu%) ([1]; C57BL/6J mice, 20 mg/kg DGC, n = 3, normal range 6.5 - 50.0): 13.2 ± 1.31%
- Percentage of lymphocyte (Lym%) ([1]; C57BL/6J mice, 20 mg/kg DGC, n = 3, normal range 40.0 - 92.0): 83 ± 2.08%
- Mean concentration of red blood cell hemoglobin (MCHC) ([1]; DGC group, mean of 3 mice): 315.67 ± 5.69
- Width of platelet distribution (PDW) ([1]; DGC group, mean of 3 mice): 15.23 ± 0.25
- Basophil granulocyte count (Bas#) [1, 4]: 0.02 ± 0.01
- Eosinophil granulocyte count (Eos#) [1, 4]: 0.04 ± 0.02
- Lymphocyte count (Lym#) [1, 4]: 6.65 ± 0.78
- Monocytes count (Mon#) [1, 4]: 0.25 ± 0.1
- Neutrophil count (Neu#) [1, 4]: 1.07 ± 0.24
- Platelet count (PLT) [1, 4]: 1228.67 ± 179.01
- White blood cell count (WBC) [1, 4]: 8.03 ± 1.12
- Red blood cell count (RBC) ([1]; DGC group, mean of 3 mice, in 10^12/L (unit assumed)): 10.16 ± 0.42
- Coefficient of variation of red blood cell distribution width (RDW-CV) [1, 5]: 13.13 ± 1
- Hematocrit (HCT) [1, 5]: 51.2 ± 1.93
- Mean corpuscular volume (MCV) [1, 6]: 50.4 ± 0.17
- Mean platelet volume (MPV) [1, 6]: 5.53 ± 0.15
- Standard deviation of red blood cell distribution width (RDW-SD) [1, 6]: 27.8 ± 2.1
- Hemoglobin (HGB) ([1]; DGC group, mean of 3 mice, in g/L (unit assumed)): 161.67 ± 8.02
- Mean hemoglobin content of red blood cells (MCH) ([1]; DGC group, mean of 3 mice): 15.93 ± 0.25
- Mean concentration of red blood cell hemoglobin (MCHC) ([1]; DGC group, mice 1): 311
- Mean corpuscular volume (MCV) [1, 7]: 50.5
- Mean platelet volume (MPV) [1, 7]: 5.7
- Mean hemoglobin content of red blood cells (MCH) ([1]; DGC group, mice 1): 15.7
- Mean concentration of red blood cell hemoglobin (MCHC) ([1]; DGC group, mice 2): 322
- Mean corpuscular volume (MCV) [1, 8]: 50.2
- Mean platelet volume (MPV) [1, 8]: 5.4
- Mean hemoglobin content of red blood cells (MCH) ([1]; DGC group, mice 2): 16.2
- Mean concentration of red blood cell hemoglobin (MCHC) ([1]; DGC group, mice 3): 314
- Mean corpuscular volume (MCV) [1, 9]: 50.5
- Mean platelet volume (MPV) [1, 9]: 5.5
- Mean hemoglobin content of red blood cells (MCH) ([1]; DGC group, mice 3): 15.9
- Urea (UREA) [2]: 9.62 ± 1.25
- Alanine aminotransferase (ALT) ([2]; in U/L (unit assumed)): 32.8 ± 4.26
- Alkaline phosphatase (ALP) ([2]; in U/L (unit assumed)): 220.7 ± 27.07
- Aspartate aminotransferase (AST) ([2]; in U/L (unit assumed)): 120.2 ± 20.04
- Creatinine (CREA) ([2]; in µmol/L (unit assumed)): 22.67 ± 1.98
- AUC(0-t) (AUClast) ([3]; female C57BL/6J mice): 650.995 µg·h/mL
- AUC(0-∞) (AUCINF_obs) ([3]; female C57BL/6J mice): 779.367 µg·h/mL
- AµMC(0-t) (AUMClast) ([3]; female C57BL/6J mice): 10136.5 h*h*mg/L
- AµMC(0-∞) (AUMCINF_obs) ([3]; female C57BL/6J mice): 19964.5 h*h*mg/L
- Cmax ([3]; female C57BL/6J mice): 191.26 µg/mL
- MRT(0-t) (MRTlast) ([3]; female C57BL/6J mice): 15.5708 h
- MRT(0-∞) (MRTINF_obs) ([3]; female C57BL/6J mice): 25.6162 h
- Vz/F (Vz_obs) ([3]; female C57BL/6J mice): 0.7329 L/kg
- elimination half-life t1/2z (HL_Lambda_z) ([3]; female C57BL/6J mice): 19.7951 h
- CLz/F (Cl_obs) ([3]; female C57BL/6J mice): 0.5 mL/min/kg and 0.4277 mL/min/kg
- Tmax ([3]; female C57BL/6J mice): 4.8 min and 4.98 min
- Clast_pred ([3]; female C57BL/6J mice): 4.584 µg/mL
- Clast ([3]; female C57BL/6J mice): 4.495 µg/mL
- AUCINF_D_obs ([3]; female C57BL/6J mice): 38.9684 kg·mg·h/L/mg
- AUCINF_D_pred ([3]; female C57BL/6J mice): 39.095 kg·mg·h/L/mg
- AUCINF_pred ([3]; female C57BL/6J mice): 781.9 µg·h/mL
- AUCall ([3]; female C57BL/6J mice): 650.995 µg·h/mL
- AUClast_D ([3]; female C57BL/6J mice): 32.5498 kg·mg·h/L/mg
- AUMCINF_pred ([3]; female C57BL/6J mice): 20158.4 h*h*mg/L
- Cl_pred ([3]; female C57BL/6J mice): 0.4263 mL/min/kg
- MRTINF_pred ([3]; female C57BL/6J mice): 25.7813 h
- Vss_obs ([3]; female C57BL/6J mice): 0.6574 L/kg
- Vss_pred ([3]; female C57BL/6J mice): 0.6595 L/kg
- Vz_pred ([3]; female C57BL/6J mice): 0.7305 L/kg
- C0 ([3]; female C57BL/6J mice): 267.189 µg/mL
- Cmax_D ([3]; female C57BL/6J mice): 9.563 kg·mg/L/mg
- Lambda_z ([3]; female C57BL/6J mice): 0.03502 h⁻¹
- elimination half-life (t1/2z) ([3]; in mice, sex not specified): about 20 h
- AUC(0-t) (AUClast) ([3]; male C57BL/6J mice): 615.219 µg·h/mL
- AUC(0-∞) (AUCINF_obs) ([3]; male C57BL/6J mice): 735.649 µg·h/mL
- AµMC(0-t) (AUMClast) ([3]; male C57BL/6J mice): 8803.77 h*h*mg/L
- AµMC(0-∞) (AUMCINF_obs) ([3]; male C57BL/6J mice): 18299.4 h*h*mg/L
- Cmax ([3]; male C57BL/6J mice): 172.688 µg/mL
- MRT(0-t) (MRTlast) ([3]; male C57BL/6J mice): 14.31 h
- MRT(0-∞) (MRTINF_obs) ([3]; male C57BL/6J mice): 24.8751 h
- Vz/F (Vz_obs) ([3]; male C57BL/6J mice): 0.8386 L/kg
- elimination half-life t1/2z (HL_Lambda_z) ([3]; male C57BL/6J mice): 21.3817 h
- CLz/F (Cl_obs) ([3]; male C57BL/6J mice): 0.5 mL/min/kg and 0.4532 mL/min/kg
- Tmax ([3]; male C57BL/6J mice): 4.8 min and 4.98 min
- Clast_pred ([3]; male C57BL/6J mice): 3.998 µg/mL
- Clast ([3]; male C57BL/6J mice): 3.904 µg/mL
- AUCINF_D_obs ([3]; male C57BL/6J mice): 36.7825 kg·mg·h/L/mg
- AUCINF_D_pred ([3]; male C57BL/6J mice): 36.9275 kg·mg·h/L/mg
- AUCINF_pred ([3]; male C57BL/6J mice): 738.551 µg·h/mL
- AUCall ([3]; male C57BL/6J mice): 615.219 µg·h/mL
- AUClast_D ([3]; male C57BL/6J mice): 30.7609 kg·mg·h/L/mg
- AUMCINF_pred ([3]; male C57BL/6J mice): 18528.2 h*h*mg/L
- Cl_pred ([3]; male C57BL/6J mice): 0.4513 mL/min/kg
- MRTINF_pred ([3]; male C57BL/6J mice): 25.0872 h
- Vss_obs ([3]; male C57BL/6J mice): 0.6763 L/kg
- Vss_pred ([3]; male C57BL/6J mice): 0.6794 L/kg
- Vz_pred ([3]; male C57BL/6J mice): 0.8353 L/kg
- C0 ([3]; male C57BL/6J mice): 204.126 µg/mL
- Cmax_D ([3]; male C57BL/6J mice): 8.634 kg·mg/L/mg
- Lambda_z ([3]; male C57BL/6J mice): 0.03242 h⁻¹

Source: publication PMC11169542, “A probe for NIR-II imaging and multimodal analysis of early Alzheimer’s disease by targeting CTGF” (Nature Communications, 2024)
